Each block holds one binder with its values, some of them ahead of it.
Target: T1, human CD3 on cells (HPB-ALL cells, primary human T cells) (human, UniProt P07766 23-207)
T1 construct: whole, on cells; only the epsilon chain is written
Assay: flow cytometry, HPB-ALL WT;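 further: binding read by flow cytometry as PE geometric mean fluorescence intensity on live single cells, dead cells excluded with SYTOX Green, only samples with at least 200 gated cells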
Method: Cells were then washed twice and resuspended in 100 μl of FACS buffer containing SYTOX Green dead cell stain (ThermoFisher Scientific, catalog NO: S34860) diluted 1/2000. Samples were acquired on a CytoFlex instruments (Beckman Coulter). Cells were gated based on size on FSC vs SSC and debris, doublets and dead cells were excluded. Cells were analyzed for PE-geometric mean (geomean) fluorescence intensity using FlowJo software. Only samples showing at least 200 cells in final gate were considered in the further steps of the analysis.

T1 sequence (P07766 23-207): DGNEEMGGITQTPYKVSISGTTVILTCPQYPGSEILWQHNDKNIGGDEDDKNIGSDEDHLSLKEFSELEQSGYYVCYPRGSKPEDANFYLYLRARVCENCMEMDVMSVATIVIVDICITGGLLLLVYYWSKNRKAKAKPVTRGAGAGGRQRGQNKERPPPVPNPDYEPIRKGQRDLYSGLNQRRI

B1: Anti-CD3-UCP03-H2 IgG1LALA (antibody, V domains shown)
VH: EVQLVESGGGLIQPGGSLRLSCAASGFTVRDSYMHWVRQAPGKGLEWVSIIYYTGKTHYADSVKGRFTISRDNSKNTLYLQMNSLRAEDTAVYYCARSQYGYFDYWGQGTLVTVSS
VL: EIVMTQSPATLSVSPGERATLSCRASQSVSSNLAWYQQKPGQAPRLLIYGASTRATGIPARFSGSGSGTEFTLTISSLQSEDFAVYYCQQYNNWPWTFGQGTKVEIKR
notes: IgG1 LALA
binding result: no binding (tested: 800 nM)

B2: Anti-CD3-UCP02-A3 IgG1LALA (antibody, V domains shown)
VH: EVQLVESGGGLIQPGGSLRLSCAASGFTFRRYYMTWVRQAPGKGLEWVSVIFPQGGTSYADSVKGRFTISRDNSKNTLYLQMNSLRAEDTAVYYCARVHDVLDDVEWFDHWGQGTLVTVSS
VL: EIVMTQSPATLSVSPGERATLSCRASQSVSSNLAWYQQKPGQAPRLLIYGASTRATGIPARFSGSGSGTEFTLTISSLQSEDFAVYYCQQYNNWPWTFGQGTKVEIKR
notes: IgG1 LALA
binding result: no binding (tested: 800 nM)

B3: Anti-CD3-UCP02-B2 IgG1LALA (antibody, V domains shown)
VH: EVQLLESGGGLVQPGGSLRLSCAASGFTFSHYVLNWVRQAPGKGLEWVSGISLTGIATIYADSVKGRFTISRDNSKNTLYLQMNSLRAEDTAVYYCARGDPTSAFDVWGQGTLVTVSS
VL: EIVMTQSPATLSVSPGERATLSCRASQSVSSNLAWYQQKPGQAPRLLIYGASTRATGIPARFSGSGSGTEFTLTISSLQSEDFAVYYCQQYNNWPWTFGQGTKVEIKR
notes: IgG1 LALA
binding result: no binding (tested: 800 nM)

B4: Anti-CD3-UCP03-F2 IgG1LALA (antibody, V domains shown)
VH: EVQLLESGGGLVQPGGSLRLSCAASGFAFSHYAMTWVRQAPGKGLELVSAISQHGGYTAYADSVKGRFTISRDNSKNTLYLQMNSLRAEDTAVYYCARGHPVHAFDFWGQGTLVTVSS
VL: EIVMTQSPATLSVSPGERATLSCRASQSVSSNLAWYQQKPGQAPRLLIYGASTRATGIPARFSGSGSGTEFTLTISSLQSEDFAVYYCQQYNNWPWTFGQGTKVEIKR
notes: IgG1 LALA
binding result: no binding (tested: 800 nM)

B5: Anti-CD3-UCP03-E2 IgG1LALA (antibody, V domains shown)
VH: EVQLVESGGGLIQPGGSLRLSCAASGISVGNNYMSWVRQAPGKGLEWVSVIYPNGRIKYADSVKGRFTISRDNSKNTLYLQMNSLRAEDTAVYYCARGVIDGSYLDFAYWGQGTLVTVSS
VL: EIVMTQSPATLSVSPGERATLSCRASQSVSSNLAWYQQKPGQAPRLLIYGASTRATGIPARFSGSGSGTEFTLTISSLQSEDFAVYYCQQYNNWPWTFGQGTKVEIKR
notes: IgG1 LALA
binding result: no binding (tested: 800 nM)

B6: Anti-CD3-UCP03-F1 IgG1LALA (antibody, V domains shown)
VH: EVQLLESGGGLVQPGGSLRLSCAASGFPFSHHVMTWVRQAPGKGLEWVSAITQRGEYTLYADSVKGRFTISRDNSKNTLYLQMNSLRAEDTAVYYCARGPVPGGDHAFDYWGQGTLVTVSS
VL: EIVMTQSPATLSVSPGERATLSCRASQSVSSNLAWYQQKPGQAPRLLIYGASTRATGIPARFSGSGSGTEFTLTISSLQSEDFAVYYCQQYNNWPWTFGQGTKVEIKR
notes: IgG1 LALA
binding result: no binding (tested: 800 nM)

B7: Anti-CD3-UCP03-G2 IgG1LALA (antibody, V domains shown)
VH: QVQLVQSGAEVKKPGSSVKVSCKASGYGFNLYAINWVRQAPGQGLEWMGRIIPEYGHTRYAQKFQGRVTITADESTSTAYMELSSLRSEDTAVYYCARDRYSTYSGGMDYWGQGTLVTVSS
VL: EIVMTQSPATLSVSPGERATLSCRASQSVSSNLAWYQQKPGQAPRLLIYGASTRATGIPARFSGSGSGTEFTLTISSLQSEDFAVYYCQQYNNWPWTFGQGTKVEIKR
notes: IgG1 LALA
binding result: no binding (tested: 800 nM)

B8: Anti-CD3-UCP03-B1 IgG1LALA (antibody, V domains shown)
VH: EVQLLESGGGLVQPGGSLRLSCAASGFTFSRYAMTWVRQAPGKGLEWVSGISKYGGATAYADSVKGRFTISRDNSKNTLYLQMNSLRAEDTAVYYCARGGTRFDIWGQGTLVTVSS
VL: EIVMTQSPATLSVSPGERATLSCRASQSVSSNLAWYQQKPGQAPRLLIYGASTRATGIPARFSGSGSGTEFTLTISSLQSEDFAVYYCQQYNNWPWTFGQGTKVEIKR
notes: IgG1 LALA
binding result: no binding (tested: 800 nM)

Results, then the binder that gave them:

binding result: no binding (tested: 800 nM)
B9: Anti-CD3-UCP03-A3 IgG1LALA (antibody, V domains shown)
VH: EVQLLESGGGLVQPGGSLRLSCAASGFTFSSNAMSWVRQAPGKGLEWVSAVGKYGGATSYADSVKGRFTISRDNSKNTLYLQMNSLRAEDTAVYYCARGGPGYSTFYEFDNWGQGTLVTVSS
VL: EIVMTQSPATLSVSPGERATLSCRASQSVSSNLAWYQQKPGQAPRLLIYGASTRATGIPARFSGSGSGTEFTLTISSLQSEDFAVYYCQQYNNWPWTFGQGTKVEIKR
notes: IgG1 LALA

binding result: no binding (tested: 800 nM)
B10: Anti-CD3-UCP03-C1 IgG1LALA (antibody, V domains shown)
VH: EVQLLESGGGLVQPGGSLRLSCAASGFTFSQYAMSWVRQAPGKGLEWVSVISPSGATAVYADSVKGRFTISRDNSKNTLYLQMNSLRAEDTAVYYCARGQYDDLDKSGYEFDHWGQGTLVTVSS
VL: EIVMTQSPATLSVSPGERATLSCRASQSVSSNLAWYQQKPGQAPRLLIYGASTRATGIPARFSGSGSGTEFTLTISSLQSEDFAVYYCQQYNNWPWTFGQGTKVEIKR
notes: IgG1 LALA

binding result: no binding (tested: 800 nM)
B11: Anti-CD3-UCP03-C5 IgG1LALA (antibody, V domains shown)
VH: EVQLVESGGGLIQPGGSLRLSCAASGFTVSDNDMSWVRQAPGKGLEWVSLIYSNGGTHYADSVKGRFTISRDNSKNTLYLQMNSLRAEDTAVYYCARWGISLGEPYFDYWGQGTLVTVSS
VL: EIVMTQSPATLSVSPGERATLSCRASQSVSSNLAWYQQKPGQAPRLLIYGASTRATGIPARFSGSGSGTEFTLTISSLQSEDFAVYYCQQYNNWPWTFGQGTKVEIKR
notes: IgG1 LALA

binding result: no binding (tested: 800 nM)
B12: Anti-CD3-UCP05-A1 IgG1LALA (antibody, V domains shown)
VH: EVQLLESGGGLVQPGGSLRLSCAASGFTFSTYAMSWVRQAPGKGLELVSAISRHGGFSRYADSVKGRFTISRDNSKNTLYLQMNSLRAEDTAVYYCARASSYGYDPWGQGTLVTVSS
VL: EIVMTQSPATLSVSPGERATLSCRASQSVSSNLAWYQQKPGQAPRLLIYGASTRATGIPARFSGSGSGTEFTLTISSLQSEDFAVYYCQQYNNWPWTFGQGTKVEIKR
notes: IgG1 LALA
